Measured values: paper PMC9912922, “The LH–DH module of bacterial replicative helicases is the common binding site for DciA and other helicase loaders” (Acta Crystallographica. Section D, Structural Biology, 2023)

B1: EcDnaC, helicase loader DnaC from Escherichia coli (natural protein)
chain: MKNVGDLMQRLQKMMPAHIKPAFKTGEELLAWQKEQGAIRSAALERENRAMKMQRTFNRSGIRPLHQNCSFENYRVECEGQMNALSKARQYVEEFDGNIASFIFSGKPGTGKNHLAAAICNELLLRGKSVLIITVADIMSAMKDTFRNSGTSEEQLLNDLSNVDLLVIDEIGVQTESKYEKVIINQIVDRRSSSKRPTGMLTNSNMEEMTKLLGERVMDRMRLGNSLWVIFNWDSYRSRVTGKEY
notes: DnaC helicase loader, Escherichia coli; source: overexpressed in E. coli, purified as described in Marsin et al. (2021)
B2: VcDnaB, replicative helicase DnaB from Vibrio cholerae (enzyme)
chain: MADPRTDNRNRKIPDAQVDAIKVPPHSLEAEQSVIGGLLLDNERWDTVSEHVMTQDFYSRPHRLIFDGVKSILEAGKPLDLITLSEYLEQREQLEDVGGFAYLADLAKNTPSAANINAYAEIVAERALVRNLIGVANEIADAGYDPQGRNAEDLLDLAESKVFAIAEARTSENEGPKNVDSILERTLERIELLYKTPQDGVTGVNTGFTDLNKKTAGLQGSDLIIVAARPSMGKTTFAMNLCENAAMEQDKPVLIFSLEMPAEQIMMRMLASLSRVDQTKIRTGQLDDEDWARISSTMGILMEKKNMYIDDSSGLTPTEVRSRARRIAREHGGLSLIMVDYLQLMRVPALTDNRTLEIAEISRSLKALAKELNVPVVALSQLNRSLEQRADKRPVNSDLRESGSIEQDADLIMFIYRDEVYHPDSPLKGTAEIIIGKQRNGPIGSVRLTFQGHYSRFDNYAGPAFDDE
notes: DnaB replicative helicase, Vibrio cholerae; seen as full-length protein without proteolysis on SDS-PAGE of the crystals; NTD 22-175 and CTD 200-461 of PDB 6t66 were the search models

Key:
[1] = biological target: B2; assay: intrinsic fluorescence variation along a thermal ramp (Tycho NT.6 nano-DSF); 20 µM of each protein in 50 mM HEPES pH 7.5, 150 mM NaCl, 1 mM ATP; 350/330 nm ratio, 35 to 95°C, compared with the ratio predicted in the absence of interaction; three to five replicates; details: both partners purified
[2] = biological target: the molecule itself; assay: crystal structure; VcDnaB (0.115 mM monomer) pre-incubated with 2 mM ADP and 5 mM MgCl2, VcDciA added to 0.138 mM; crystals at 18°C in 0.1 M sodium acetate pH 4.8-5.6, 0.7-0.9 M potassium/sodium tartrate; 2.9 Å

Binder	binding result [1]	binding result [2]
B1	binds	–
B2	–	binds
